T1: RodZ‐FLAG (Streptococcus pneumoniae D39)
T1 sequence (Q8DMX7 1-276, looked up): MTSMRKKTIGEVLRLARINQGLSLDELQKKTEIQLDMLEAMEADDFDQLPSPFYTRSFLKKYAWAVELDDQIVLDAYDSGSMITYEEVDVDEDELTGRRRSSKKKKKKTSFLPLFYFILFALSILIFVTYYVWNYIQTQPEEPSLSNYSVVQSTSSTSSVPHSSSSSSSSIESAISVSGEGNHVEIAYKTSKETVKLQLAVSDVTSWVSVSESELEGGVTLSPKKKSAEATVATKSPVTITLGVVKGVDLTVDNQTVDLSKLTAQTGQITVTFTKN

T2: RodZ‐L‐FLAG^3 (Streptococcus pneumoniae D39)
T2 sequence (Q8DMX7 1-276, looked up): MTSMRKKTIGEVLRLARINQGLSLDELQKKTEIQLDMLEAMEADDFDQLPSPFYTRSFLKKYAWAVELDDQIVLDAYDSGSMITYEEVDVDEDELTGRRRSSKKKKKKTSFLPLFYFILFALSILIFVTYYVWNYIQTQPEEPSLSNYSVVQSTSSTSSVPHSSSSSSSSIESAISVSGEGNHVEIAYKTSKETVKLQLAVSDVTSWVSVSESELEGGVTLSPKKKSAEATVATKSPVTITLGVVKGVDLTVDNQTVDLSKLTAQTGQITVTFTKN

T3: MreC‐L‐F3 (Streptococcus pneumoniae D39, UniProt Q8DMY2 1-272)
T3 sequence (looked up): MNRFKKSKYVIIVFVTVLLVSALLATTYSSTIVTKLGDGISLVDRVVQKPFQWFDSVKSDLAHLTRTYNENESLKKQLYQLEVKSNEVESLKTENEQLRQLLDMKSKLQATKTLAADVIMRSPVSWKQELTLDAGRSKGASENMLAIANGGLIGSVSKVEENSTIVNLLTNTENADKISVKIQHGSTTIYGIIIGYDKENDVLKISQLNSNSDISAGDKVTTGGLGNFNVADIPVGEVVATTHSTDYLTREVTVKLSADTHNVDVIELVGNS

B1: aPBP2a (natural protein, UniProt A0A0H2ZMF9 1-731, looked up)
chain: MKLDKLFEKFLSLFKKETSELEDSDSTILRRSRSDRKKLAQVGPIRKFWRRYHLTKIILILGLSAGLLVGIYLFAVAKSTNVNDLQNALKTRTLIFDREEKEAGALSGQKGTYVELTDISKNLQNAVIATEDRSFYKNDGINYGRFFLAIVTAGRSGGGSTITQQLAKNAYLSQDQTVERKAKEFFLALELSKKYSKEQILTMYLNNAYFGNGVWGVEDASKKYFGVSASEVSLDQAATLAGMLKGPELYNPLNSVEDSTNRRDTVLQNMVAAGYIDKNQETEAAEVDMTSQLHDKYEGKISDYRYPSYFDAVVNEAVSKYNLTEEEIVNNGYRIYTELDQNYQANMQIVYENTSLFPRAEDGTFAQSGSVALEPKTGGVRGVVGQVADNDKTGFRNFNYATQSKRSPGSTIKPLVVYTPAVEAGWALNKQLDNHTMQYDSYKVDNYAGIKTSREVPMYQSLAESLNLPAVATVNDLGVDKAFEAGEKFGLNMEKVDRVLGVALGSGVETNPLQMAQAYAAFANEGLMPEAHFISRIENASGQVIASHKNSQKRVIDKSVADKMTSMMLGTFTNGTGISSSPADYVMAGKTGTTEAVFNPEYTSDQWVIGYTPDVVISHWLGFPTTDENHYLAGSTSNGAAHVFRNIANTILPYTPGSTFTVENAYKQNGIAPANTKRQVQTNDNSQTDDNLSDIRGRAQSLVDEASRAISDAKIKEKAQTIWDSIVNLFR
B2: DivIVA (natural protein, UniProt Q8CWP9 1-262, looked up)
chain: MPITSLEIKDKTFGTRFRGFDPEEVDEFLDIVVRDYEDLVRANHDKNLRIKSLEERLSYFDEIKDSLSQSVLIAQDTAERVKQAAHERSNNIIHQAEQDAQRLLEEAKYKANEILRQATDNAKKVAVETEELKNKSRVFHQRLKSTIESQLAIVESSDWEDILRPTATYLQTSDEAFKEVVSEVLGEPIPAPIEEEPIDMTRQFSQAEMEELQARIEVADKELSEFEAQIKQEVETPTPVVSPQVEEEPLLIQLAQCMKNQK
B3: MreC (natural protein)
chain: MNRFKKSKYVIIVFVTVLLVSALLATTYSSTIVTKLGDGISLVDRVVQKPFQWFDSVKSDLAHLTRTYNENESLKKQLYQLEVKSNEVESLKTENEQLRQLLDMKSKLQATKTLAADVIMRSPVSWKQELTLDAGRSKGASENMLAIANGGLIGSVSKVEENSTIVNLLTNTENADKISVKIQHGSTTIYGIIIGYDKENDVLKISQLNSNSDISAGDKVTTGGLGNFNVADIPVGEVVATTHSTDYLTREVTVKLSADTHNVDVIELVGNS

Experiments:
Experiment in all cases: co-IP
[1] = target: MpgA‐F (Streptococcus pneumoniae D39)
[2] = target: MreC‐L‐F3 (Streptococcus pneumoniae D39) (UniProt Q8DMY2)
[3] = target: T1, RodZ‐FLAG (Streptococcus pneumoniae D39)
[4] = target: T2, RodZ‐L‐FLAG^3 (Streptococcus pneumoniae D39)
[5] = target: PBP1a‐F (Streptococcus pneumoniae D39)
[6] = target: KhpB‐L‐F3 (Streptococcus pneumoniae D39) (UniProt Q8CY87)
MreC‐L‐F3 = target: T3, MreC‐L‐F3

| Molecule | ratio of prey protein band/background [1] | ratio of prey protein band/background [2] | ratio of prey protein band/background [3] | ratio of prey protein band/background [4] | ratio of prey protein band/background [5] | ratio of prey protein band/background [6] | ratio of prey protein band/background (MreC‐L‐F3) |
| --- | --- | --- | --- | --- | --- | --- | --- |
| FtsA (from UniProt A0A0H2ZPT5 1-457) (natural protein) | 4.5 | – | – | – | – | – | – |
| aPBP1a (natural protein) | 22 | 41 | 11 | 61 | – | – | – |
| StkP (natural protein) | 34 | 14 | – | 23 | 28 | – | – |
| RodZ‐HA^3 (natural protein) | – | – | – | – | 8.6 | 1.4 | – |
| GpsB (natural protein) | 38 | 26 | 24 | 51 | 16 | – | – |
| MpgA‐HA (natural protein) | – | – | – | 8.6 | – | – | – |
| FtsW‐L‐GFP (from UniProt A0ACD7PRK7 1-409) (natural protein) | – | – | – | 4.5 | – | – | – |
| bPBP2x (natural protein) | 12 | 10 | 4.8 | 8.7 | 15 | – | – |
| bPBP2b (natural protein) | 13 | 47 | 26 | 63 | 13 | – | – |
| B1 | – | – | – | – | – | – | 20 |
| B2 | 53 | – | 7.9 | 18 | 6.8 | – | 4.3 |
| B3 | 22 | – | 24 | 100 | 19 | – | – |

Reference: paper PMC9804626 (Molecular Microbiology, 2022)
